IL-2 secretion (ELISA of culture supernatants) from SEB-stimulated human PBMC treated 24 hours, versus anti-RSV isotype-control bivalent antibody XENP15074, IL-2 secretion (ELISA) from SEB-stimulated human PBMC, versus a mixture of the monovalent component antibodies XENP20111 (anti-PD1 scFv-Fc) and XENP20059 (anti-CTLA4 Fab-Fc) and IL-2 secretion (ELISA) from SEB-stimulated human PBMC, versus the bivalent anti-PD1 antibody XENP16432 data for one substance are collected here from patent US20230074793A1.

This assay has as its target CTLA4 (cytotoxic T-lymphocyte-associated protein 4) (human) (UniProt P16410). Nature of the assay: cell-based or functional assay.

CTLA4 (cytotoxic T-lymphocyte-associated protein 4) (human), sequence (P16410 36-223): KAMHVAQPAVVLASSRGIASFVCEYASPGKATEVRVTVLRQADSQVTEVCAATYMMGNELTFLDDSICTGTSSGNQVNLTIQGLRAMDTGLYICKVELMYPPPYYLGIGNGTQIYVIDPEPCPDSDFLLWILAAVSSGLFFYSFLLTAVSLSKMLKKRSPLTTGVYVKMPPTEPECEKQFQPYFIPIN

In the case of XmAb®20717 (bispecific antibody), the IL-2 secretion (ELISA of culture supernatants) from SEB-stimulated human PBMC treated 24 hours, versus anti-RSV isotype-control bivalent antibody XENP15074 was found to be 4.1 fold; the IL-2 secretion (ELISA) from SEB-stimulated human PBMC, versus a mixture of the monovalent component antibodies XENP20111 (anti-PD1 scFv-Fc) and XENP20059 (anti-CTLA4 Fab-Fc) came to 1.6 fold; the IL-2 secretion (ELISA) from SEB-stimulated human PBMC, versus the bivalent anti-PD1 antibody XENP16432 amounted to 1.5 fold.
